Results taken from patent US20220096653A1, “CONJUGATE COMPRISING LIGAND AND CEACAM5 ANTIBODY FAB FRAGMENT” (ASTELLAS PHARMA INC., priority 2019, published 2022).
Where “and” joins values, the source holds several entries; their conditions need not be identical. Identical values can stand only once.

How the values were obtained:
liver metastasis = conditions: compared with the normal liver; cited from earlier work
[1] = mouse, in vivo; cited from earlier work
[2] = molecular target: T1, CEACAM5 (R&D Systems, 4128-CM-050) (human, UniProt P06731 35-685); experiment: ELISA on immobilised CEACAM5, 4-parameter fit; geometric mean of 9 runs
T1 construct: Immobilised on the ELISA plate; also called human CEACAM5
T1 sequence (looked up): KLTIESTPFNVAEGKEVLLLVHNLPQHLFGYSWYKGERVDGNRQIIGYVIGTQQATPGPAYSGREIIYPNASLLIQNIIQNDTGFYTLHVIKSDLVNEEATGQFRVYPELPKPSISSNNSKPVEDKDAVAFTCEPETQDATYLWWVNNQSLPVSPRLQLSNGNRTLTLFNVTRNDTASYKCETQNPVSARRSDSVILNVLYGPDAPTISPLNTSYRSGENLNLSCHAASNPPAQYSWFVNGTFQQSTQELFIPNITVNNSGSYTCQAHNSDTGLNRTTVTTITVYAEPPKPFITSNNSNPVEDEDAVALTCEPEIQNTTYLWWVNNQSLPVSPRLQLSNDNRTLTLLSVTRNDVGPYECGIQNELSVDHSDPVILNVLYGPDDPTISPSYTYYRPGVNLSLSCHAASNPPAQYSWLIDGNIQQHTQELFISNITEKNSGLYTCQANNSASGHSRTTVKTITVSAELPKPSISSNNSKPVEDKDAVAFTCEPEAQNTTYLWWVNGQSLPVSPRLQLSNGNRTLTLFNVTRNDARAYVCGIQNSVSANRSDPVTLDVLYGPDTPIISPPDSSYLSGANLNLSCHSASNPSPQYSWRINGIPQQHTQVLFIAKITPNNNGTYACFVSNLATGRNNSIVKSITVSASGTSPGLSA
Experimental: (§1) Each anti-human CEACAM5 antibody Fab fragment conjugate prepared in Example 2 was subjected to ELISA to evaluate the binding activity thereof to CEACAM5. In the present test, a phosphate buffer (Nacalai Tesque Inc., 0.1 mol/L-Phosphate Buffer Solution (pH 7.2)) prepared to 10 mM by diluting 10-fold with distilled water was used as a solvent for an antigen immobilization liquid, and 20×PBS/Tween 20 Buffer (Thermo Fisher Scientific Inc., 28352) diluted 20-fold with distilled water was used as a wash liquid. In addition, for bovine serum albumin (BSA) used in the present test, 30% Bovine Serum Albumin solution (Sigma-Aldrich, Inc., A9576-50ML) was added in an appropriate proportion for use. CEACAM5 (R&D Systems, 4128-CM-050) was diluted with a 10 mM phosphate buffer (pH 7.2) to 0.1 μg/mL, and added to a Nunc MaxiSorp White 384 plate (Nunc, 4603272) at 30 μL per well, and the plate was incubated overnight at 4° C. for immobilization. The CEACAM5 immobilization liquid was removed by reverse centrifugation, and then blocking was carried out by adding a PBS/Tween 20 buffer containing 5.0% BSA. […] The substrate was incubated at room temperature for 15 minutes, and then a signal value thereof was measured using an Envision counter (PerkinElmer, Inc.).
The test for each antibody was carried out in duplicate, and an EC₅₀ value was calculated using a 4-parameter logistic curve model.

[3] = molecular target: T1, CEACAM5 (R&D Systems, 4128-CM-050); experiment: ELISA on immobilised CEACAM5, 4-parameter fit; one of 2 runs (Example 3-2)
Experimental: as §1
(§2) The test for each antibody was carried out in duplicate, and the EC₅₀ value was calculated using a 4-parameter logistic curve model.

[4] = molecular target: T1, CEACAM5 (R&D Systems, 4128-CM-050); experiment: ELISA on immobilised CEACAM5, 4-parameter fit, duplicate (Example 3-2)
Experimental: as §1, §2

[5] = molecular target: human cancer-specific MUC1 peptide (PTL 1) (human); experiment: ELISA on immobilised human cancer-specific MUC1 peptide, 4-parameter fit; one of 3 runs (Example 6-1)
[6] = molecular target: human cancer-specific MUC1 peptide (PTL 1) (human); experiment: ELISA on immobilised human cancer-specific MUC1 peptide, 4-parameter fit; one of 3 runs (Example 6-2)
[7] = design: species or system mice (BALB/c nu/nu); conditions: mouse, in vivo
Experimental: (§3) A Gd-labeled conjugate of the conjugate containing a peptide linker produced in one of the above Examples was administered from the tail vein of tumor-bearing mice so that the protein mass was 0.02 mg (100 μL) per animal. As the tumor-bearing mice used in the present Example, mice (BALB/c nu/nu) that were in a tumor-bearing state brought about by transplanting human colorectal cancer cell line LS174T cells (ATCC(registered trademark); CL-188) at 2.0 to 5.0×10^6 cells/mouse subcutaneously on the back before administration of the sample were used. 24 hours after administration of the sample, the mice were sacrificed, the kidneys and the tumor were removed, and the amounts of Gd in the kidneys and in the tumor were measured using ICP-MS. The present test was carried out in 3 cases in each group, and the mean value of the 3 cases was calculated. The amount of Gd contained per kidney after administration was shown as a percentage of the amount of Gd administered (% of dose/tissue), and the amount of Gd contained per g of tumor tissue was shown as a percentage of the total amount of Gd administered (% of dose/g).

[8] = Kidney accumulation evaluation test of Gd-labeled conjugates, normal mice (Example 4-1)
Experimental: A Gd-labeled conjugate of the conjugate containing a peptide linker produced in one of the above Examples was administered from the tail vein of mice (BALB/c or BALB/c nu/nu) so that the protein mass was 0.02 mg (100 μL) per animal. After about 24 hours, the mice were sacrificed and the kidneys were removed, and the amount of Gd in the kidneys was measured using ICP-MS. The present test was carried out in 3 cases in each group, the mean value of the 3 cases was calculated, and the amount of Gd contained per kidney after administration was shown as a percentage (% of dose/tissue) of the total amount of Gd administered.
Based on the percentage of the control conjugate (% of dose/tissue), the proportion of decrease in the amount of Gd contained in the kidneys of each of the conjugates having a peptide linker was determined and shown in Table 28.

[9] = test system: human colorectal cancer cell line LS174T cells; experiment: Amount of tumor accumulation of Gd-labeled conjugates, LS174T tumor-bearing mice (Example 4-4); conditions: Gd per g of tumor tissue, 24 hours, mean of 3 cases
Experimental: as §3

CEA-Scan: mouse monoclonal antibody NP-4 Fab′ labeled with ^99mTc; FDA-approved diagnostic drug for colorectal cancer
uptake into lesion sites (liver metastasis): does not exceed the uptake into the normal liver

[^111In]DOTA-Rituxan Fab: conjugate of [^111In]DOTA-Rituxan Fab (NPL 11)
accumulation in the kidneys [1]: highly accumulated in the kidneys

B1: anti-human CEACAM5 antibody Fab fragment PB009-01 (Fab, V domains shown)
VH: EVQLVESGGGLVQPGGSLRLSCAASGFNIRDTYMHWVRQAPGKGLEWVARIDPANGNSRYVPKFQGRFTISADTSRNTAYLQMNSLRAEDTAVYYCAPFGYYVSDYAMAYWGQGTLVTVSS
VL: DIQLTQSPSSLSASVGDRVTITCRAGESVDIFGVGFLHWYQQKPGKAPKLLIYRASNLESGIPSRFSGSGSRTDFTLTISSLQPEDFATYYCQQTNEDPYTFGQGTKVEIKR
notes: Humanized from mouse T84.66; also called Fab^2; Fab^2 fragment having no labeling portion
EC50 [2]: 0.2 nM | EC50 [3]: 0.14 nM and 0.21 nM

B2: [Gd/DOTA-NH-CH2-(1,4-Ph)-NH-C(═O)-Met-Ile-NH-(CH2)2-(A-4 and/or A-5)]p-Fab^2 (Fab, V domains shown)
VH: EVQLVESGGGLVQPGGSLRLSCAASGFNIRDTYMHWVRQAPGKGLEWVARIDPANGNSRYVPKFQGRFTISADTSRNTAYLQMNSLRAEDTAVYYCAPFGYYVSDYAMAYWGQGTLVTVSS
VL: DIQLTQSPSSLSASVGDRVTITCRAGESVDIFGVGFLHWYQQKPGKAPKLLIYRASNLESGIPSRFSGSGSRTDFTLTISSLQPEDFATYYCQQTNEDPYTFGQGTKVEIKR
modifications: labeling may sit on this chain; sites not stated; labeling portion (MW 1092) on amino groups of the Fab, sites and chain not stated; 1-4 per Fab by MS
notes: also called Ex-No 66; Conjugate No. 66
EC50 [4]: 0.16 nM

B3: [Gd/DOTA-NH-CH2-(1,4-Ph)-NH-C(═O)-Met-Ile-NH-(CH2)2-(A-3)]p-Fab^2 (Fab, V domains shown)
VH: EVQLVESGGGLVQPGGSLRLSCAASGFNIRDTYMHWVRQAPGKGLEWVARIDPANGNSRYVPKFQGRFTISADTSRNTAYLQMNSLRAEDTAVYYCAPFGYYVSDYAMAYWGQGTLVTVSS
VL: DIQLTQSPSSLSASVGDRVTITCRAGESVDIFGVGFLHWYQQKPGKAPKLLIYRASNLESGIPSRFSGSGSRTDFTLTISSLQPEDFATYYCQQTNEDPYTFGQGTKVEIKR
modifications: labeling may sit on this chain; sites not stated; labeling portion (MW 1187) on amino groups of the Fab, sites and chain not stated; 1-3 per Fab by MS
notes: also called Ex-No 68; Conjugate No. 68
EC50 [4]: 0.31 nM

B4: anti-human MUC1 antibody Fab fragment P10-2 (Fab, V domains shown)
VH: QVQLVQSGAEVKKPGASVKVSCKASGYTFTNYGLSWVRQAPGQGLEWMGENHPGSGIIYHNEKFRGRVTLTADRSTSTAYMELSSLRSEDTAVYYCARSSGTRGFDYWGQGTLVTVSS
VL: DVVMTQTPLSLSVTPGQPASISCRSSQSIVHSNGNTYLEWYLQKPGQSPQLLIYRVSNRFSGVPDRFSGSGSGTDFTLKISRVEAEDVGVYYCFQGSHGPWTFGQGTKLEIKR
modifications: glutamine of amino acid 1 modified to pyroglutamic acid (as Fab^5 is defined in paragraph 370)
EC50 [5]: 0.06 nM and 0.14 nM | EC50 [6]: 0.06 nM and 0.14 nM

B5: [Gd/DOTA-[2,5-(1,2,3,4-tetrahydroisoquinoline)]-C(═O)-Met-Gly-Lys*-Z2(#N)]p-Fab^2 (conjugate)
heavy: EVQLVESGGGLVQPGGSLRLSCAASGFNIRDTYMHWVRQAPGKGLEWVARIDPANGNSRYVPKFQGRFTISADTSRNTAYLQMNSLRAEDTAVYYCAPFGYYVSDYAMAYWGQGTLVTVSSASTKGPSVFPLAPSSKSTSGGTAALGCLVKDYFPEPVTVSWNSGALTSGVHTFPAVLQSSGLYSLSSVVTVPSSSLGTQTYICNVNHKPSNTKVDKKVEPKSCD
light: DIQLTQSPSSLSASVGDRVTITCRAGESVDIFGVGFLHWYQQKPGKAPKLLIYRASNLESGIPSRFSGSGSRTDFTLTISSLQPEDFATYYCQQTNEDPYTFGQGTKVEIKRTVAAPSVFIFPPSDEQLKSGTASVVCLLNNFYPREAKVQWKVDNALQSGNSQESVTEQDSKDSTYSLSSTLTLSKADYEKHKVYACEVTHQGLSSPVTKSFNRGEC
Renal residual amount (tumor-bearing mice) % of dose/tissue [7]: 7.30 % of dose/tissue | Renal residual amount (tumor-bearing mice) Proportion of decrease [7]: 71.74% | Proportion of decrease (amount of Gd contained in the kidneys) ([8]; based on control conjugate Ex-No. 47, about 24 hours): 82.9% | % of dose/tissue (amount of Gd contained per kidney) ([8]; tail vein, 0.02 mg protein per animal, about 24 hours, ICP-MS, mean of 3 cases): 5.3 % of dose/tissue | Amount of tumor accumulation (tumor-bearing mice) [9]: 4.53 % dose/g
